pKd: −log10 of the molar value.

In this experiment the target is Human CD64 (FcγRI), His-tagged (human) (UniProt P12314). Nature of the experiment: SPR single cycle kinetics, 1:1 model, His-CD64 captured, antibody as analyte.
Sequence of Human CD64 (FcγRI), His-tagged (human) (P12314 16-288 limits assumed): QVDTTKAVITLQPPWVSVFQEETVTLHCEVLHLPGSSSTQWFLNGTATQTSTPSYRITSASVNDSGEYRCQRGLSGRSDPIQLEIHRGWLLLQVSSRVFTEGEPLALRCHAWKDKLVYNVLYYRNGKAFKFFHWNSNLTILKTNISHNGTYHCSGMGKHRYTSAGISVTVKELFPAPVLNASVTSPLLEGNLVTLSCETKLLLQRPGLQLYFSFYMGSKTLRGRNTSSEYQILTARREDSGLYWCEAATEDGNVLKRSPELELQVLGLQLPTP

A word on the pKd: it is −log10 of the Kd, conventionally taken in molar units. The low end stands for a large Kd, the high end for a small Kd. A word on the koff: it is the rate constant with which the complex falls apart. A word on the kon: it is the rate constant with which the complex forms. Low readings indicate slow association, high ones fast association. Substance Irrelevant IgG1 (antibody) showed a pKd of 8.58, a koff of 0.00083 s⁻¹ and a kon of 319000 M⁻¹ s⁻¹.

Turning to Irrelevant IgG4 (antibody), the pKd was 8.22, the koff amounted to 0.00249 s⁻¹ and the kon amounted to 417000 M⁻¹ s⁻¹.

Source of the values: US20230059181A1.
